Measured values reported in paper PMC4558366 (Cell reports, 2015).

Target: T1, UHRF1_(647-687) (human, UniProt Q96T88-2 647-687)
T1 chain (looked up): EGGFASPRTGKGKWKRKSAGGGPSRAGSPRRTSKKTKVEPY
Assay: ITC

fold reduction of binding affinity against wild type: 4 fold
B1: USP7 UBL1-2 E736A (domain or fragment)
chain: EAHLYMQVQIVAEDQFCGHQGNDMYDEEKVKYTVFKVLKNSSLAEFVQSLSQTMGFPQDQIRLWPMQARSNGTKRPAMLDNEADGNKTMIELSDNENPWTIFLETVDPELAASGATLPKFDKDHDVMLFLKMYDPKTRSLNYCGHIYTPISCKIRDLLPVMCDRAGFIQDTSLILYAEVKPNLTERIQDYDVSLDKALDELMDGDIIVFQKDDPENDNSELPTAKEYFRDLYH
